# Measured values reported in patent publication US20160311887A1 (CAMBRIDGE ENTERPRISE, published 2016).
# Numbering of substitutions follows the chain as printed. In names and notes the source's numbering stands. Where two headings read alike, the source gives them in different places.
# B1: A22 2.B10 PCI (P4SP2LP1′K) (other)
# chain: APSSRRDFTFDLYRALASAAPSQNIFFSPVSISMSLAMLSLGAGSSTKMQILEGLGLNLQKSSEKELHRGFQQLLQELNQPRDGFQLSLGNALFTDLVVDLQDTFVSAMKTLYLADTFPTNFRDSAGAMKQINDYVAKQTKGKIVDLLKNLDSNAVVIMVNYIFFKAKWETSFNHKGTQEQDFYVTSETVVRVPMMSREDQYHYLLDRNLSCRVVGVPYQGNATALFILPSEGKMQQVENGLSEKTLRKWLKMFKKRQLELYLPKFSIEGSYQLEKVLPSLGISNVFTSHADLSGISNHSNIQVSEMVHKAVVEVDESGTRAAAATGTISTLRKARLNSQRLVFNRPFLMFIVDNNILFLGKVNRP
# notes: As A22 WT PCI
# B2: A22 D8 PCI (P4QP2RP1′N) (other)
# chain: B1 chain with S330Q, L332R, K334N
# notes: As A22 WT PCI
# B3: A22 5.E12 PCI (P4HP2RP1′V) (other)
# chain: B1 chain with S330H, L332R, K334V
# notes: As A22 WT PCI
# B4: A22 4.H11 PCI (P4KP2RP1′H) (other)
# chain: B1 chain with S330K, L332R, K334H
# notes: As A22 WT PCI
# B5: FL α1AT Pitts C232S P2K (other)
# chain: SDPQGDAAQKTDTSHHDQDHPTFNKITPNLAEFAFSLYRQLAHQSNSTNIFFSPVSIATAFAMLSLGTKADTHDEILEGLNFNLTEIPEAQIHEGFQELLRTLNQPDSQLQLTTGNGLFLSEGLKLVDKFLEDVKKLYHSEAFTVNFGDTEEAKKQINDYVEKGTQGKIVDLVKELDRDTVFALVNYIFFKGKWERPFEVKDTEEEDFHVDQVTTVKVPMMKRLGMFNIQHSKKLSSWVLLMKYLGNATAIFFLPDEGKLQHLENELTHDIITKFLENEDRRSASLHLPKLSITGTYDLKSVLGQLGITKVFSNGADLSGVTEEAPLKLSKAVHKAVLTIDEKGTEAAGAMFLEAIKRSIPPEVKFNKPFVFLMIEQNTKSPLFMGKVVNPTQK
# notes: E. coli, SUMO tag removed; also called P2K α1AT Pitts; P2.G11
# B6: FL α1AT Pitts C232S P2TP1′N (other)
# chain: B5 chain with K357T, S359N
# notes: E. coli, purified; also called 4.G9
# B7: FL α1AT Pitts C232S P2RP1′C (other)
# chain: B5 chain with K357R, S359C
# notes: E. coli, purified; also called 1.B11
# B8: FL α1AT Pitts C232S P2TP1′Y (other)
# chain: B5 chain with K357T, S359Y
# notes: E. coli, purified; also called 3.A10
# B9: FL α1AT Pitts C232S P2QP1′K (other)
# chain: B5 chain with K357Q, S359K
# notes: E. coli, purified; also called 4.G4
# B10: FL α1AT Pitts C232S P1′R (other)
# chain: B5 chain with K357P, S359R
# notes: E. coli, purified; also called P1′.A11
# B11: FL α1AT Pitts C232S P1′K (other)
# chain: B5 chain with K357P, S359K
# notes: E. coli, SUMO tag removed; also called P1′K α1AT Pitts; P1′.F9
# B12: FL α1AT Pitts C232S P2KP1′N (other)
# chain: B5 chain with S359N
# notes: E. coli, purified; also called 3.B2; 2.H5
# B13: FL α1AT Pitts C232S P1′E (other)
# chain: B5 chain with K357P, S359E
# notes: E. coli, purified; also called P1′.H8; P1′.F10
# B14: FL α1AT Pitts C232S P2KP1′H (other)
# chain: B5 chain with S359H
# notes: E. coli, purified; also called 1.A12
# B15: FL α1AT Pitts C232S P2R (other)
# chain: B5 chain with K357R
# notes: E. coli, purified; also called P2.F10; P2.G8
# Columns and labels:
# [1] = molecular target: T1, thrombin (UniProt P00734 328-622); assay: preliminary pseudo-first-order inhibition kinetics, residual chromogenic activity
# Method: (§1) Preliminary second-order rate constants for the inhibition of thrombin and APC by random mutagenesis PCI variants were measured under pseudo first-order conditions using an excess of serpin over protease. Serpin and protease were incubated together for varying lengths of time and the residual activity determined by adding an excess of chromogenic substrate for the protease. Plots of residual protease activity over time gave the observed rate constant kobs. The second-order rate constant, k₂, is the slope of the plot of kobs versus serpin concentration (fitted using a linear regression model). WT and P2KP1′K are shown for comparison. The error shown is the standard error of the slope.
# [2] = molecular target: T2, activated Protein C (APC) (human, UniProt P04070 43-197; P04070 212-461); assay: as above
# T2 construct: also called human plasma APC
# Method: as §1
# [3] = molecular target: T2, activated Protein C (APC); assay: ratio of rate constants, APC over thrombin
# Method: Standard errors are shown.
# as §1
# [4] = molecular target: T1, thrombin; assay: pseudo-first-order inhibition kinetics, residual chromogenic activity
# Method: (§2) Rate constants of thrombin and APC inhibition were measured under pseudo-first-order conditions using an excess of serpin over protease (Table 1). Serpin and protease were incubated together for varying lengths of time and the residual activity was determined by adding an excess of chromogenic substrate for the protease (S2238 for thrombin and […] for APC). Residual protease activity was then measured by following the absorbance at 405 nm. Plots of residual protease activity over time gave the observed rate constant kobs. The second-order rate constant, ₖ₂, is the slope of the plot of kobs versus serpin concentration (fitted using a linear regression model). Standard errors of the slope are shown.
# [5] = molecular target: T2, activated Protein C (APC); assay: as above
# Method: as §2
# [6] = molecular target: T2, activated Protein C (APC); assay: ratio of rate constants, APC over thrombin; remark: listed apart in the source
# Method: as §2
# [7] = molecular target: T2, activated Protein C (APC); assay: ratio of rate constants, APC over fXa
# Method: (§3) The inhibition of APC was reduced but still considerable, especially for the variants of α₁AT and the PCI variants in the presence of heparin. However, the specificity of PCI and α₁AT Pitts is not limited to thrombin and APC. […] In order not to inhibit coagulation, our variants also need to be specific for APC over fXa. We therefore also determined the rate constants of inhibition of PCI and α₁AT and their variants for fXa (Table 3). Rate constants were measured under pseudo-first-order conditions using an excess of serpin over protease. Serpin and protease were incubated together for varying lengths of time and the residual activity determined by adding an excess of chromogenic substrate (S2222) for the protease. Plots of residual protease activity over time gave the observed rate constant kobs. The second-order rate constant, k₂, is the slope of the plot of kobs versus serpin concentration (fitted using a linear regression model). Standard errors of the slope are shown (Table 3).
# [8] = molecular target: T3, fXa (UniProt P00742 41-179; P00742 235-488); assay: pseudo-first-order inhibition kinetics, residual chromogenic activity (S2222)
# T3 construct: also called factor Xa
# Method: as §3
# [9] = molecular target: T1, thrombin; assay: pseudo-first-order inhibition kinetics, residual chromogenic activity; remark: listed apart in the source
# [10] = molecular target: T2, activated Protein C (APC); assay: as above; remark: listed apart in the source
# [11] = molecular target: T2, activated Protein C (APC); assay: ratio of rate constants, APC over thrombin; remark: listed apart in the source
# [12] = molecular target: T2, activated Protein C (APC); assay: ratio of rate constants, APC over fXa; remark: listed apart in the source
# [13] = molecular target: T3, fXa; assay: pseudo-first-order inhibition kinetics, residual chromogenic activity (S2222); remark: listed apart in the source
# [14] = molecular target: TF:fVIIa (UniProt P13726 33-295; P08709 61-466, limits assumed); assay: cell-based or functional assay
# TF:fVIIa, sequence (P13726 33-295 limits assumed, chain 1 of 2): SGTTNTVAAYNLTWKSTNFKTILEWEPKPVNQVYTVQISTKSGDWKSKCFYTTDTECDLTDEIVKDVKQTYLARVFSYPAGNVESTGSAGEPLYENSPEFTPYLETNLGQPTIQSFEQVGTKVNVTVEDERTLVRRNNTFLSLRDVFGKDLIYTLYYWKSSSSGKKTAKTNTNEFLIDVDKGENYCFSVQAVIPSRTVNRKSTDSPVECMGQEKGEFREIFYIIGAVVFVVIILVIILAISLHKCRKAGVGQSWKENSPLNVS
# TF:fVIIa, sequence (P08709 61-466 limits assumed, chain 2 of 2): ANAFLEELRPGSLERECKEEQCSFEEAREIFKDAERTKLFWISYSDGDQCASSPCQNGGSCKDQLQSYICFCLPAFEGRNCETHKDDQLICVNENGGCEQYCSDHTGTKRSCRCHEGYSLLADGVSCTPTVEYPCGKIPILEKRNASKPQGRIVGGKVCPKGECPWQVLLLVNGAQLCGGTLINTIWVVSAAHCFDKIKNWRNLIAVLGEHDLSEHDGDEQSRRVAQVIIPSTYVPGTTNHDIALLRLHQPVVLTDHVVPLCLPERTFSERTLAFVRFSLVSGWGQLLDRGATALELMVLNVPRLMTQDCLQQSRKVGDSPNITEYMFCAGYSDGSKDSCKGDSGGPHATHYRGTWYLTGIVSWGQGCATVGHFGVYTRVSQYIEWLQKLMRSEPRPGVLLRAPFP
# T3 sequence (P00742 41-179 limits assumed, form in doubt, chain 1 of 2): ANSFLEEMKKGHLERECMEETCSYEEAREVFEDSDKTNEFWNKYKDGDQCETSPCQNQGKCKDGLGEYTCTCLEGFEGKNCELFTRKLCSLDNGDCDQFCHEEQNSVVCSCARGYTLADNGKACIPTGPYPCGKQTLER
# T3 sequence (P00742 235-488 limits assumed, form in doubt, chain 2 of 2): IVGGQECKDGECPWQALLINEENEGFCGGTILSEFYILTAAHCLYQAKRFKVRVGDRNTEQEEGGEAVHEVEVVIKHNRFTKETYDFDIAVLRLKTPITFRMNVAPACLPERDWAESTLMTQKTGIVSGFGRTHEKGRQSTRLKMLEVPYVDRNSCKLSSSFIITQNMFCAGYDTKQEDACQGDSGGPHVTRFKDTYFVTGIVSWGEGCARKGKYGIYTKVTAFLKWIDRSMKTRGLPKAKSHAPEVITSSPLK
# T2 sequence (P04070 43-197, chain 1 of 2): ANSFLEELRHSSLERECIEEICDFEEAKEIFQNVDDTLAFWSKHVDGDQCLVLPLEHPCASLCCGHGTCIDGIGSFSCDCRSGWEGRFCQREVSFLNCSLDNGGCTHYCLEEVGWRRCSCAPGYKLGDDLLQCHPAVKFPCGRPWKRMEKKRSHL
# T2 sequence (P04070 212-461, chain 2 of 2): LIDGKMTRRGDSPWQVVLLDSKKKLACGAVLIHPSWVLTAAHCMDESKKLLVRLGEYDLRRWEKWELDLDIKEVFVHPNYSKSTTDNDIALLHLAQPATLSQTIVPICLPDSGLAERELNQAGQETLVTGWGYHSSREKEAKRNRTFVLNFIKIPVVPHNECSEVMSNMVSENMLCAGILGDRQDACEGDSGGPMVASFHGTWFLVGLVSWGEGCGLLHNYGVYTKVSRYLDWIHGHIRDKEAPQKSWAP
binder,measurement,setting,value
B1,second-order rate constant of inhibition,[1],16 M⁻¹ s⁻¹
same,second-order rate constant of inhibition,[2],430 M⁻¹ s⁻¹
same,inhibition of APC/thrombin,[3],26.9 fold
B2,second-order rate constant of inhibition,[1],84 M⁻¹ s⁻¹
same,second-order rate constant of inhibition,[2],1000 M⁻¹ s⁻¹
same,inhibition of APC/thrombin,[3],11.9 fold
B3,second-order rate constant of inhibition,[1],23 M⁻¹ s⁻¹
same,second-order rate constant of inhibition,[2],260 M⁻¹ s⁻¹
same,inhibition of APC/thrombin,[3],11.3 fold
B4,second-order rate constant of inhibition,[1],21 M⁻¹ s⁻¹
same,second-order rate constant of inhibition,[2],450 M⁻¹ s⁻¹
same,inhibition of APC/thrombin,[3],21.4 fold
B5,second-order rate constant of inhibition,[4],51 M⁻¹ s⁻¹
same,second-order rate constant of inhibition,[5],64800 M⁻¹ s⁻¹
same,fold inhibition APC/thrombin,[6],1270 fold
same,fold inhibition APC/fXa,[7],16.5 fold
same,second-order rate constant of inhibition,[8],3930 M⁻¹ s⁻¹
B6,second-order rate constant of inhibition,[9],270 M⁻¹ s⁻¹
same,second-order rate constant of inhibition,[10],62400 M⁻¹ s⁻¹
same,inhibition of APC/thrombin,[11],231 fold
B7,second-order rate constant of inhibition,[9],34 M⁻¹ s⁻¹
same,second-order rate constant of inhibition,[10],24600 M⁻¹ s⁻¹
same,inhibition of APC/thrombin,[11],722 fold
B8,second-order rate constant of inhibition,[9],23 M⁻¹ s⁻¹
same,second-order rate constant of inhibition,[10],5700 M⁻¹ s⁻¹
same,inhibition of APC/thrombin,[11],248 fold
B9,second-order rate constant of inhibition,[9],3.8 M⁻¹ s⁻¹
same,second-order rate constant of inhibition,[10],33400 M⁻¹ s⁻¹
same,inhibition of APC/fXa,[12],30.9 fold
same,second-order rate constant of inhibition,[13],1080 M⁻¹ s⁻¹
same,"PT (s), 5 µM serpin",[14],27.9 s
same,inhibition of APC/thrombin,[11],8790 fold
B10,second-order rate constant of inhibition,[9],680 M⁻¹ s⁻¹
same,second-order rate constant of inhibition,[10],132000 M⁻¹ s⁻¹
same,inhibition of APC/thrombin,[11],194 fold
B11,second-order rate constant of inhibition,[4],170 M⁻¹ s⁻¹
same,second-order rate constant of inhibition,[5],95700 M⁻¹ s⁻¹
same,fold inhibition APC/thrombin,[6],563 fold
same,fold inhibition APC/fXa,[7],19.6 fold
same,second-order rate constant of inhibition,[8],4890 M⁻¹ s⁻¹
B12,second-order rate constant of inhibition,[9],15 M⁻¹ s⁻¹
same,second-order rate constant of inhibition,[10],37800 M⁻¹ s⁻¹
same,inhibition of APC/fXa,[12],41.5 fold
same,second-order rate constant of inhibition,[13],910 M⁻¹ s⁻¹
same,"PT (s), 5 µM serpin",[14],27.8 s
same,inhibition of APC/thrombin,[11],2520 fold
B13,second-order rate constant of inhibition,[9],150 M⁻¹ s⁻¹
same,second-order rate constant of inhibition,[10],2990 M⁻¹ s⁻¹
same,inhibition of APC/thrombin,[11],19.9 fold
B14,second-order rate constant of inhibition,[10],28800 M⁻¹ s⁻¹
same,inhibition of APC/fXa,[12],46.5 fold
same,second-order rate constant of inhibition,[13],620 M⁻¹ s⁻¹
same,"PT (s), 5 µM serpin",[14],27.4 s
B15,second-order rate constant of inhibition,[9],42 M⁻¹ s⁻¹
same,second-order rate constant of inhibition,[10],61100 M⁻¹ s⁻¹
same,inhibition of APC/fXa,[12],12.8 fold
same,second-order rate constant of inhibition,[13],4790 M⁻¹ s⁻¹
same,"PT (s), 5 µM serpin",[14],27.8 s
same,inhibition of APC/thrombin,[11],1460 fold
